From US20130230562

Target: ApoHsp (cage protein formed by the fusion protein of Hsp, DEVD motif and histidine polymer, labelled with Cy5.5 and BHQ3)

B1: caspase-8 (NCBI accession no: NP-001073593.1), human, purchased from R&D Systems (protein)
chain: SESQTLDKVYQMKSKPRGYCLIINNHNFAKAREKVPKLHSIRDRNGTHLDAGALTTTFEELHFEIKPHDDCTVEQIYEILKIYQLMDHSNMDCFICCILSHGDKGIIYGTDGQEAPIYELTSQFTGLKCPSLAGKPKVFFIQACQGDNYQKGIPVETDSEEQPYLEMDLSSPQTRYIPDEADFLLGMATVNNCVSYRNPAEGTWYIQSLCQSLRERCPRGDDILTILTEVNYEVSNKDDKKNMGKQMPQPTFTLRKKLVFPSD
fluorescence signal (Cy5.5 dequenching after cleavage, 96-well plate, 37 C, 2 hours): fluorescence did not occur in reactions with another two capases at all

B2: caspase-9 (NCBI accession no: NP-001220.2), human, purchased from R&D Systems (protein)
chain: MDEADRRLLRRCRLRLVEELQVDQLWDALLSRELFRPHMIEDIQRAGSGSRRDQARQLIIDLETRGSQALPLFISCLEDTGQDMLASFLRTNRQAAKLSKPTLENLTPVVLRPEIRKPEVLRPETPRPVDIGSGGFGDVGALESLRGNADLAYILSMEPCGHCLIINNVNFCRESGLRTRTGSNIDCEKLRRRFSSLHFMVEVKGDLTAKKMVLALLELAQQDHGALDCCVVVILSHGCQASHLQFPGAVYGTDGCPVSVEKIVNIFNGTSCPSLGGKPKLFFIQACGGEQKDHGFEVASTSPEDESPGSNPEPDATPFQEGLRTFDQLDAISSLPTPSDIFVSYSTFPGFVSWRDPKSGSWYVETLDDIFEQWAHSEDLQSLLLRVANAVSVKGIYKQMPGCFNFLRKKLFFKTS
fluorescence signal (Cy5.5 dequenching after cleavage, 96-well plate, 37 C, 2 hours): fluorescence did not occur in reactions with another two capases at all
